Assay: soluble on expression in E. coli; label from the status in PepcDB or PDB records
In the case of “KGDDTYYIIFTSGTTGKPKGVQISHDNLLSFTNWMINAEAFATPHRPQMLAQPPYSFDLSVMYWAPTLALGGTLFALPKEITADFKQLFTTINQLPIGVWTSTPSFVDMAMLSDDFNAQQLPHLTHFYFDGEELTVKTAKKLRQRFPQARIVNAYGPTEATVALSALAVTDKML”, the “soluble on expression in E. coli” value is reported as “not soluble”. With “MQNYSVSVTSDRPAPFQQITIPLADGTVLHARLWLPQTPLADRVPLVLEWIPYRQSDGTALADSMMHGYFAEQGIAAARVDIRGSGNSDGLLHDEYLKQEQDDACEVIAWFARQDWCNGNVGLIGISWGGFAGLQIAARRPPALKCIITACSTDNRYTDDVHYMGGALLSDGMQWGSGLFAQLGRPADPKHVGDRWREMWMNRLEGIKEPPLATWMQHTTYDDFWKHGSVCEDYDEIQCAVWAVGGWVDGYTDPILRLMEKLSVPKKALIGPWTHMYPTWGQPGPQIGFLQEAMRWWRHWLMDEDTGIMDEPQLTLWLGKDPKPDTRAPDIGGRWIGLP” the “soluble on expression in E. coli” value was “not soluble”. With “MGSDKIHHHHHHMTSKPSTSDGRAHSISHVPGTHMRGTSASHSPRPFRPCADCTCSPGLLSRQGRRASLFLRQLENSRRSSSMLLNELKGAGGGSSAGNGSVYSCDSLCAVNREVNTTDRLLKLRQEMKKHDLCCYIVPSCDEHQSEYVSLRDQRRAFISGFSGSAGVACITRDLLNFNDDHPDGKSILSTDGRYFNQARQELDYNWTLLRQNEDPITWQEWCVREALEMAKGLGNKEGMVLKIGIDPKLITFNDYVSFRKMIDTKYDAKGKVELVPVEENLVDSIWPDFETLPERPCNDLLLLKYEFHGEEFKDKKEKLLKKLNDKASSATTGRNTFIVVALDEICWLLNLRGSDIDYNPVFFSYVAINEDETILFTNNPFNDDISEYFKINGIEVRPYEQIWEHLTKITSQASSAEHEFLIPDSASWQMVRCLNTSTNANGAIAKKMTAQNFAIIHSPIDVLKSIKNDIEIKNAHKAQVKDAVCLVQYFAWLEQQLVGREALIDEYRAAEKLTEIRKTQRNFMGNSFETISSTGSNAAIIHYSPPVENSSMIDPTKIYLCDSGSQFLEGTTDITRTIHLTKPTKEEMDNYTLVLKGGLALERLIFPENTPGFNIDAIARQFLWSRGLDYKHGTGHGIGSFLNVHEGPMGVGFRPHLMNFPLRAGNIISNEPGYYKDGEYGIRIESDMLIKKATEKGNFLKFENMTVVPYCRKLINTKLLNEEEKTQINEYHARVWRTIVHFLQPQSISYKWLKRETSPL” the “soluble on expression in E. coli” value was “not soluble”. In the case of “MSLSTKDVKELAIEQAKKFGGKLEVCPKVPIETKADLGIAYTPGVAAVSSAIHEKKERAYELTTKKNTVAVISDGSAVLGLGNIGPEAAMPVMEGKAALFKRFAGVDSIPLVLDTQDTEEIIQTVKFLAPTFGGINLEDISAPRCFEIEQRLIDELDIPVFHDDQHGTAIVVLAALYNSLKLINKKIEDIHVVINGGGSAGLSITRKFLAAGVKHIIIVDRAGILSETDTALPPHHAEIAKLTNREHRTGDLATALEGADVFVGVSAPGVLKPEWIQQMNEQPVIFAMANPVPEIFPDEALAAGAYIVGTGRSDFPNQINNVLAFPGIFRGALDARAKKITIEMQIAAAKGIAKLIPDNELTPTNIIPDPFQEGVAKVVAESVRNAVKETNEGHHHHHH”, the “soluble on expression in E. coli” value is reported as “soluble”. In the case of “MGSDKIHHHHHHMSNLSLDFSHNEFQPLAARMRPATLAQYIGQQHLLGAGKPLPRAIEAGQLHSMILWGPPGTGKTTLAELIGHYGQADVERISAVTSGIKEIREAIERARQNRNAGRRTILFVDEVHRFNKSQQDAFLPHIEDGTITFIGATTENPSFELNSALLSRARVYLLKALMAEDIEQVLLQAMSDSERGYGGLNIVLPAETGRMLAELVNGDARRALNSLEMMADMAEIDAQGMRILTPALLNEIAGERSARFDNKGDRYYDLISALHKSVRGSAPDAALYWYARIITAGGDPLYVARRLLAIASEDVGNADPRAMQVAISAWDCFTRVGPAEGERAIAQAIVYLACAPKSNAVYSAFKAAMQDAREKPDYDVPEHLCNAPTRLMKEMGLGAEYRYAHNEPNAYAAGESYFPPEMADTHYYAPTSRGLEGKIGEKLAWLATQDQNSPTKRYR”, the “soluble on expression in E. coli” value is reported as “not soluble”. In the case of “GAMDAEGLALLLPPVTLAALVDSWLREDCPGLNYAALVSGAGPSQAALWAKSPGVLAGQPFFDAIFTQLNCQVSWFLPEGSKLVPVARVAEVRGPAHCLLLGERVALNTLARCSGIASAAAAAVEAARGAGWTGHVAGTRKTTPGFRLVEKYGLLVGGAASHRYDLGGLVMVKDNHVVAAGGVEKAVRAARQAADFALKVEVECSSLQEAVQAAEAGADLVLLDNFKPEELHPTATVLKAQFPSVAVEASGGITLDNLPQFCGPHIDVISMGMLTQAAPALDFSLKLFAKEVAPVPKIH”, the “soluble on expression in E. coli” value is reported as “soluble”. For “MKIAALYDIHGNYPALKEVLKQVKKLSPDLVVLGGDLIAGPMPLETLSLLKHVSTTFKTVGIMGNNDQDIVDIYAKKRVGLSRKATEQLTWIANQLSYKQVSFLRNLLPSISIGNYFFCHAVKNDNTTVFSPQQNKAYIETLFKGVQESYIICGHTHIQFELSLPNKKIINAGSIGMPFSNQFGAQWLWLDDNRIEYKRTIFNQQAAIQLISQTEYPFKNEFLEHHHHHH”, the “soluble on expression in E. coli” value was “not soluble”. In the case of “MAHHHHHHMTNRGVVNAEELRGAVCAIVSRYQKTPQRRLLVCVAGRPGSGKTTIANILAEEARELLRKVSSDPRDHAENAVVVMPMDGYHLYRKTLHAMPNREEAIARRGAEWTFDARKLCRDLQAIRLPSETADKKGAPLYDDVFVPSFDHSVGDPKERDICVSGSAAIVIVEGNYLLYRGTPTWAEVNRCFDMGVFQACPAATCARRLCRRHMAAWGISEAEAMVRATGSDAMNGDLVETTGKNADIVLHSIESSI”, the “soluble on expression in E. coli” value is reported as “soluble”. With “MSLSKQETEKVRVFALGGVGEIGKNMYGIEVDEDIIVIDAGLMFPDDDMLGVDIVIPDVSYLVENEERVRGIILTHGHEDHIGGLSYVLKKINVPVYATKLTLGLVEEKLKEAGIHRHAELRLIDSNSRIKLGNTPVSFFRVSHSIPDCVGVCVETSQGAIVHTGDFKFDQTPVDGKHADIGKMAAIGQKGVLCLMSDSTNAERPGTTKSEAEAGKGIKDVFARTKGRLIVTSFASNVHRIQQVIQAASATNRKLAVVGKSMVRVISIAGKLGYLKIPKDLLIDMDEVNKHKPEKVAILTTGSQGEPMSALTRMAKGAHRHITITPNDTVIIAATAIPGNETSVSAVIDQLYRIGAEVIYGSQAVHASGHGSQEELKLMLNLMRPKFFLPIHGEIRMQHAHQQLALQVGIKKERIYIVEKGEVIEFTKQQARRGPKVPSGHVLIDGLGVGDVGNIVLRDRRLLSKDGILVVVVTLNKKTNTIVSGPNIISRGFVYVRESEELLEKSNELVTSILQKCVTENVNEWSSLKSNIREGLSRYLFEKTKRRPMILPIIMEEGHHHHHH” the “soluble on expression in E. coli” value was “soluble”. With “APLATRQGKRPSKNLKARCSRKALHVNFKDMGWDDWIIAPLEYEAFHCEGLCEFPLRSHLEPTNHAVIQTLMNSMDPESTPPTCCVPTRLSPISILFIDSANNVVYKQYEDMVVESCGCR” the “soluble on expression in E. coli” value was “soluble”. In the case of “MQCCVQLVPFWDTSGVSTMFDYQVSKHPHFDEACRAFALRHNLVQLAERAGMNVQILRNKLNPAQPHLLTAPEIWLLTDLTEDSTLVDGFLAQIHCLPCVPINEVAKEKLPHYVMSATAEIGRVAAGAVSGDVKTSAGRRDAISSINSVTRLMALAAVSLQARLQANPAMASAVDTVTGLGASFGLL”, the “soluble on expression in E. coli” value is reported as “not soluble”. For “MSIQLNGINCFYGAHQALFDITLDCPEGETLVLLGPSGAGKSSLLRVLNLLEMPRSGTLTIAGNHFDFTKTPSDKAIRELRQNVGMVFQQYNLWPHLTVVQNLIEAPCRVLGLTKDQALARAEKLLERLRLKPYSDRYPLHLSGGQQQRVAIARALMMEPQVLLFDEPTAALDPEITAQIVSIIHELAETNITQVIVTHEVEVARKTASRVIYMENGHIVEHGDAGCFAHPQTEAFKNYLSH”, the “soluble on expression in E. coli” value was “not soluble”. For “MQILKAIGLLMEYPDDELWECRDEALTLIQHDAPMLADFTRELLYAPLLDKQAEWCEVFDRGRATSLLLFEHVHAESRDRGQAMVDLLSQYETVGLHLNCRELPDHLPLYLEYLSVLPEAEAREGLQNIAPILALLGGRLKQRGAPWYQLFDALLTLAGSTLTSDSVTKQIIQESRDDTRQALDAVWEEEQVKFIEDNATTCDSSPLHHYQRRFSQDAAPQYVDVSAGGPK”, the “soluble on expression in E. coli” value was “not soluble”. With “MGSDKIHHHHHHMAGVILLLMGEGLACAHDTALLDKAGRLMASRDYAAAYALLEPVESEYSGDPAYDMLFGLAAIDSGHVTRGVFALERVLAVQPYNGNARAQIARAYFLLGEQEAARAEFRNVLNQQPPEEITQVINRYMSAIDKAQGLTTAFSAYLEGGVGHDSNVNSATAASSVTVAVPALGGLIVDIGLDRQARESSDNYTNLAGGISFRTPLARRFALFAGINASQRLNRHQDAFDLGMLDANVGLSYRQHRDTYTVAAQANSLSLDDQTYRRAYGINMQWQRDIDTKNQVNLFAQVSRLAYPDNRIRDADRYIVGGGWAHVFDGDLTPLLFVSGYGGKEQARNEYADFLSYRVHGVRSGGQLTLRPNLVAFTTLGYENRRHDEPETFPFLFATREDKQLDASVGLRYLPGYNWIIKPQFTFIRNDSTVELYSFDRYMVSVSVRREFNW” the “soluble on expression in E. coli” value was “not soluble”. For “MKISTKGRYGLTIMIELAKKYGDRPISLRSIAKANNLSEHYLEQLVTPLRNAGLVKSIRGAYGGYVLAEHPAKITAGDILRVLEGPLTPVEELEEEEPAKRELWIRIRDAVEEVLDSTTLEDLAKYSDGDEGAYMFYI”, the “soluble on expression in E. coli” value was “not soluble”. With “MGSDKIHHHHHHMLPLSAEEFARLVPILRQAGLSHVTHIHELAGGLSNHNYHIQTPTTQYALRLNAEAADRFCSREQELFYWRNLAKAKLAPELIWTSCDHRYYLSAFIESQDIASLLNASQIPDMLGDWADVRGALNWKNLAYQCSAAEFTLGEQRLQTWLQAHAENFECALHQACMPQSFAAQLTPLALLESQCPNRVHSLLLQLLQRLRLQSAGPYHISVTEQWQQYHQQLLAFAATDKGSAWQTRLDLLLGLQPQIHRWTTVLADCLVAAQFCHRDLNPHNLLLKDNQLYCIDFEYATASHPLCELAVVLATHRLTPVQRHILVRQYLADHPGVTSTAITAVPAAIDMYWVFALYWALLIAAQTDAERQQEYLAWFDSFWSLVSQDA” the “soluble on expression in E. coli” value was “not soluble”. In the case of “MVNEYKKILLLKGFELMDDYHFTSIKSLLAYDLGLTTKMQEEYNRIKITDLMEKKFQGVACLDKLIELAKDMPSLKNLVNNLRKEKSKVAKKIKTQEKAPVKKINQEEVGLAAPAPTARNKLTSEARGRIPVAQKRKTPNKEKTEAKRNKVSQEQSKPPGPSGASTSAAVDHPPLPQTSSSTPSNTSFTPNQETQAQRQVDARRNVPQNDPVTVVVLKATAPFKYESPENGKSTMFHATVASKTQYFHVKVFDINLKEKFVRKKVITISDYSECKGVMEIKEASSVSDFNQNFEVPNRIIEIANKTPKISQLYKQASGTMVYGLFMLQKKSVHKKNTIYEIQDNTGSMDVVGSGKWHNIKCEKGDKLRLFCLQLRTVDRKLKLVCGSHSFIKVIKAKKNKEGPMNVN”, the “soluble on expression in E. coli” value is reported as “soluble”. In the case of “MDKIRYGIMSTAQIVPRFVAGLRESAQAEVRGIASRRLENAQKMAKELAIPVAYGSYEELCKDETIDIIYIPTYNQGHYSAAKLALSQGKPVLLEKPFTLNAAEAEELFAIAQEQGVFLMEAQKSVFLPITQKVKATIQEGGLGEILWVQSVTAYPNVDHIPWFYSREAGGGALHGSGSYPLQYLQYVLGKEIQEVTGTATYQQGATDSQCNLALKFAEGTLGNIFINVGLKIPSEMTICGTKGQIVIPNFWKTDCAYYTDAQGNTVKWSEQFTSEFTYEINHVNQCLQDKKLTSPVMTKELTIATVKIVESFYQEWFDNE”, the “soluble on expression in E. coli” value is reported as “not soluble”. With “INIEIAYAFPERYYLKSFQVDEGITVQTAITQSGILSQFPEIDLSTNKIGIFSRPIKLTDVLKEGDRIEIYRPLLADPKEIRRK” the “soluble on expression in E. coli” value was “not soluble”.

From the DeepSol protein solubility set
